PMC2582146 (Biochemistry, 2008)
Like-named read-outs stand apart in the source and are kept apart here. Each block holds one binder with its values, some of them ahead of it. No end group written: not given here.

How the values were obtained:
CAL PDZ domain [1] = molecular target: T1, CAL PDZ domain (UniProt Q9HD26-2 278-362); experiment: fluorescence polarisation
NHERF1 PDZ1 domain [2] = molecular target: T2, NHERF1 PDZ1 domain (human, UniProt O14745 1-139); experiment: fluorescence polarisation
T2 sequence (looked up): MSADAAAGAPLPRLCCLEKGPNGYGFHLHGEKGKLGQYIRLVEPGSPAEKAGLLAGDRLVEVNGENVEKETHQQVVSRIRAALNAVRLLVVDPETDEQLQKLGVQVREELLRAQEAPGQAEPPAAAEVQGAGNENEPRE

CAL PDZ domain [3] = molecular target: T1, CAL PDZ domain; experiment: fluorescence polarisation; remark: listed apart in the source
NHERF1 PDZ1 domain [4] = molecular target: T2, NHERF1 PDZ1 domain; experiment: fluorescence polarisation; remark: listed apart in the source
CAL PDZ domain [5] = molecular target: T1, CAL PDZ domain; experiment: peptide or protein array
NHERF1 PDZ1 domain [6] = molecular target: T2, NHERF1 PDZ1 domain; experiment: fluorescence polarisation; remark: listed apart in the source
NHERF1 PDZ1 domain [7] = molecular target: T2, NHERF1 PDZ1 domain; experiment: ITC
NHERF1 PDZ1 domain [8] = molecular target: T2, NHERF1 PDZ1 domain; experiment: ITC; remark: listed apart in the source
NHERF1 PDZ1 domain [9] = molecular target: T2, NHERF1 PDZ1 domain; experiment: SPR

- Ki (CAL PDZ domain [1]): 229 ± 16 µM
B1: C-RTKN10 (peptide)
peptide: CQPRTWLQSPV

- Kd (NHERF1 PDZ1 domain [2]): 0.279 ± 0.021 µM
B4: F*-CFTR10 (peptide)
peptide: fluorescein-TEEEVQDTRL

- Ki (CAL PDZ domain [1]): 451 ± 42 µM
B5: C-FRZ5_(10) (peptide)
peptide: CYHKQVSLSHV

- Kd (NHERF1 PDZ1 domain [2]): 0.949 ± 0.089 µM
B8: F*C-CFTR4 (peptide)
peptide: C(fluorescein‑5‑maleimide)DTRL

- Ki (CAL PDZ domain [1]): 42.2 ± 4.2 µM
B12: C-AIC3A10 (peptide)
peptide: CHRTCYLVTQL

- Ki (CAL PDZ domain [1]): 1110 ± 480 µM
B18: C-βCAT10 (peptide)
peptide: CNQLAWFDTDL

- Ki (CAL PDZ domain [1]): 107 ± 1.7 µM
B19: C-NLG2_(10) (peptide)
peptide: CLPHPHSTTRV

- Ki (CAL PDZ domain [3]): 22.6 ± 7.1 µM
- Ki (CAL PDZ domain [1]): 37.6 ± 4 µM
B21: C-SSR5_(10) (peptide)
peptide: CANGLMQTSKL

- Ki (NHERF1 PDZ1 domain [4]): 0.597 ± 0.077 µM
- Kd (NHERF1 PDZ1 domain [9]): 0.0103 µM
- Ki (CAL PDZ domain [1]): 690 ± 120 µM
B22: C-CFTR10 (peptide)
peptide: CTEEEVQDTRL

- Ki (CAL PDZ domain [1]): 88.3 ± 6.3 µM
B23: C-CL1_(10) (peptide)
peptide: CDGQMQLVTSL

- Ki (CAL PDZ domain [1]): 158 ± 19 µM
B24: C-NLG10 (peptide)
peptide: CHPHSHSTTRV

- Ki (CAL PDZ domain [3]): 110 ± 60 µM
- Ki (CAL PDZ domain [1]): 93 ± 8.5 µM
B25: C-ClC3B10 (peptide)
peptide: CEVYLLNSTTL

More lines, now with the values behind:

B2: C-GluRδ2_(10) (peptide)
peptide: CGNDPDRGTSI
- Ki (CAL PDZ domain [1]): 560 ± 130 µM

B3: C-NR2A10 (peptide)
peptide: CKKMPSIESDV
- Ki (CAL PDZ domain [1]): 1940 ± 920 µM

B6: C-SDK2_(10) (peptide)
peptide: CAPIAGFSSFV
- Ki (CAL PDZ domain [1]): 150 ± 20 µM

B7: C-β1AR10 (peptide)
peptide: CRPGFASESKV
- Ki (CAL PDZ domain [3]): 410 ± 190 µM
- Ki (CAL PDZ domain [1]): 510 ± 110 µM

B9: CGG-CFTR16 (peptide)
peptide: CGGAALKEETEEEVQDTRL
- Ki (NHERF1 PDZ1 domain [4]): 0.209 ± 0.064 µM

B10: C-CFTR6 (peptide)
peptide: CVQDTRL
- Ki (NHERF1 PDZ1 domain [4]): 0.67 ± 0.097 µM

B11: C-FRZ8_(10) (peptide)
peptide: CYPKQMPLSQV
- Ki (CAL PDZ domain [1]): 47 ± 10 µM

B13: F*GG-CFTR16 (peptide)
peptide: fluorescein-GGAALKEETEEEVQDTRL
- Kd (NHERF1 PDZ1 domain [2]): 0.116 ± 0.01 µM

B14: CFTR C-terminal undecamer peptide on the HUMLIB array (peptide, UniProt P13569 1470-1480, looked up)
peptide: ETEEEVQDTRL
- binding result (CAL PDZ domain [5]): binds

B15: SSR5 C-terminal undecamer peptide on the HUMLIB array (peptide, UniProt P35346 354-364, looked up)
peptide: AANGLMQTSKL
- binding result (CAL PDZ domain [5]): binds

B16: C-CFTR4 (peptide)
peptide: CDTRL
- Ki (NHERF1 PDZ1 domain [6]): 0.949 µM
- Ki (NHERF1 PDZ1 domain [4]): 1.52 ± 0.078 µM

B17: C-GluRδ1_(10) (peptide)
peptide: CALDTSHGTSI
- Ki (CAL PDZ domain [1]): 875 ± 56 µM

B20: CFTR10 (peptide)
peptide: TEEEVQDTRL
- dH (NHERF1 PDZ1 domain [7]): -9.11 kcal/mol
- Kd (NHERF1 PDZ1 domain [8]): 0.787 ± 0.055 µM
- dH (NHERF1 PDZ1 domain [8]): -10.4 ± 0.19 kcal/mol
- dH extrapolated to 37 °C (NHERF1 PDZ1 domain [8]): -12.2 kcal/mol
